The values that follow come from PMC5828407 (Veterinary Research, 2018).

B1: GST-tagged FaeG fusion protein of F4ab (natural protein)
chain: WMTGDFNGSVDIGGSITADDYRQKWEWKVGTGLNGFGNVLNDLTNGGTKLTITVTGNKPILLGRTKEAFATPVSGGVDGIPQIAFTDYEGASVKLRNTDGETNKGLAYFVLPMKNAEGTKVGSVKVNASYAGVFGKGGVTSADGELFSLFADGLRAIFYGGLTTTVSGAALTSGSAAAARTELFGSLSRNDILGQIQRVNANITSLVDVAGSYREDMEYTDGTVVSAAYALGIANGQTIEATFNQAVTTSTQWSAPLNVAITYY
B2: porcine aminopeptidase N (APN), His-tagged whole protein (receptor)
chain: MAKGFYISKALGILGILLGVAAVATIIALSVVYAQEKNKNAEHVPQAPTSPTITTTAAITLDQSKPWNRYRLPTTLLPDSYNVTLRPYLTPNADGLYIFKGKSIVRLLCQEPTDVIIIHSKKLNYTTQGHMVVLRGVGDSQVPEIDRTELVELTEYLVVHLKGSLQPGHMYEMESEFQGELADDLAGFYRSEYMEGNVKKVLATTQMQSTDARKSFPCFDEPAMKATFNITLIHPNNLTALSNMPPKGSSTPLAEDPNWSVTEFETTPVMSTYLLAYIVSEFQSVNETAQNGVLIRIWARPNAIAEGHGMYALNVTGPILNFFANHYNTSYPLPKSDQIALPDFNAGAMENWGLVTYRENALLFDPQSSSISNKERVVTVIAHELAHQWFGNLVTLAWWNDLWLNEGFASYVEYLGADHAEPTWNLKDLIVPGDVYRVMAVDALASSHPLTTPAEEVNTPAQISEMFDSISYSKGASVIRMLSNFLTEDLFKEGLASYLHAFAYQNTTYLDLWEHLQKAVDAQTSIRLPDTVRAIMDRWTLQMGFPVITVDTKTGNISQKHFLLDSESNVTRSSAFDYLWIVPISSIKNGVMQDHYWLRDVSQAQNDLFKTASDDWVLLNVNVTGYFQVNYDEDNWRMIQHQLQTNLSVIPVINRAQVIYDSFNLATAHMVPVTLALDNTLFLNGEKEYMPWQAALSSLSYFSLMFDRSEVYGPMKKYLRKQVEPLFQHFETLTKNWTERPENLMDQYSEINAISTACSNGLPQCENLAKTLFDQWMSDPENNPIHPNLRSTIYCNAIAQGGQDQWDFAWGQLQQAQLVNEADKLRSALACSNEVWLLNRYLGYTLNPDLIRKQDATSTINSIASNVIGQPLAWDFVQSNWKKLFQDYGGGSFSFSNLIQGVTRRFSSEFELQQLEQFKKNNMDVGFGSGTRALEQALEKTKANIKWVKENKEVVLNWFIEHS
B3: GST-tagged FaeG fusion protein of F4ad (natural protein)
chain: WMTGDFNGSVDIGGSITADDYRQKWEWKVGTGLNGFGNVLNDLTNGGTKLTITVTGNKPILLGRTKEAFATPVTSGVDGIPHIAFTDYEGASVELRNPDGETEKGLAYFVLPMKNAEGTKVGSVKVNASYAGALGRGGVTSADGELMSLFAEGSHAIFYGGLPTNVKNSELKGGSAAAARTELFGSLSKNDILGQIQRVNANITSLVNVPGSFNENMAYTDGSVVSVAYALGIANGQTIEATFNQAVTTSTQWSAPLNVAITYY

Common to all, as to details: both partners purified
One assay has as its target T1, APN∆1 (401–963 AA) (porcine, UniProt P15145 401-963).
T1 sequence: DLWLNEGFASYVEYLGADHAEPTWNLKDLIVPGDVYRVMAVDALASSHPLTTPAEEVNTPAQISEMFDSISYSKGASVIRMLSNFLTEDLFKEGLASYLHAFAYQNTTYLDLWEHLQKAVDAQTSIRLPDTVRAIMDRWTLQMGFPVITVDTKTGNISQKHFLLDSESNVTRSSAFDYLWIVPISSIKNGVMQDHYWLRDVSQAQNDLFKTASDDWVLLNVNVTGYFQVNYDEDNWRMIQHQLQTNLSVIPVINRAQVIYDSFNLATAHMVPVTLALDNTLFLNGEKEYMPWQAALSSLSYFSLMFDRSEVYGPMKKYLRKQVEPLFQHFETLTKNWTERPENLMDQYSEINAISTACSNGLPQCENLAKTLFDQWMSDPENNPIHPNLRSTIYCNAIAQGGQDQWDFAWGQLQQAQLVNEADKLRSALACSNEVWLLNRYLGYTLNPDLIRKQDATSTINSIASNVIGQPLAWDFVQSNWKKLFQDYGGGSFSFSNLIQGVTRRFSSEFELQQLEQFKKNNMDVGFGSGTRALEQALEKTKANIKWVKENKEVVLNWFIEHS
Put plainly: ELISA; indirect ELISA: APN and its five truncated proteins coated at 100 μg/mL in carbonate-bicarbonate buffer pH 9.6, incubated with 100 μg/mL FaeG fusion protein, detected with anti-F4 monoclonal antibody. A general note: An ELISA detects its analyte on a solid surface through an enzyme-linked reagent.

For a further assay, the target named is T2, APN∆5 (332–963 AA) (porcine, UniProt P15145 332-963).
T2 sequence: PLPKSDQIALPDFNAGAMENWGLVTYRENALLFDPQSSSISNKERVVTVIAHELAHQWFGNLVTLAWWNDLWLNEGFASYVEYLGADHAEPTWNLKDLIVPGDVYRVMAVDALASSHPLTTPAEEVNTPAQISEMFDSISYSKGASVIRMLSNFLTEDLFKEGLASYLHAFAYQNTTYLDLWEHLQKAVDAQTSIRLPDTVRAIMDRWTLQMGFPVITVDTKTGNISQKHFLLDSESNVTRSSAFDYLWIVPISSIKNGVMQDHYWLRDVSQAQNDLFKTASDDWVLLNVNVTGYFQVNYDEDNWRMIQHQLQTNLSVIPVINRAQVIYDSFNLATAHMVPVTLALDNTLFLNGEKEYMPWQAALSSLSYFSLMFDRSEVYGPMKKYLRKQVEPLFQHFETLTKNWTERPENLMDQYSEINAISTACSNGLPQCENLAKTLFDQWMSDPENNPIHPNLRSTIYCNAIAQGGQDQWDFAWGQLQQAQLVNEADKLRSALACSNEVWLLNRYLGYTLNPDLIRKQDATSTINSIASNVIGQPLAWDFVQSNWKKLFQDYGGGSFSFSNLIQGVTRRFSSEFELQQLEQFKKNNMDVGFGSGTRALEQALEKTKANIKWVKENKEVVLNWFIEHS
Described as above.

Assay [1] has as its target B2. As to the kind of experiment: ELISA; APN protein coated on plates, incubated with FaeG peptides, fusion FaeG proteins or F4 fimbriae; absorbance at 450 nm.
In assay [2] the target is GST-tagged FaeG fusion protein of F4ac (Escherichia coli, UniProt P14190 22-283). The description is as above.

In the case of B1, the binding result (in the assay with APN∆1 (401–963 AA); with APN∆5 (332–963 AA); in assay [1]) was “binds” in each case.
Turning to B2, the binding result in assay [2] was “binds”.
As for B3, the binding result (in the assay with APN∆1 (401–963 AA); with APN∆5 (332–963 AA); in assay [1]) was “binds” throughout.
